Measurements from US20230265179A1 (TWIST BIOSCIENCE, published 2023).

T1: IL1RL1 over-expressed on Expi293 cells (UniProt Q01638 19-556, limits assumed)
T1 construct: whole, on cells; Target of the flow cytometry MFI ratio (over-expressing cells over parent cells); also called cytokine over-expressing Expi293 cells
T1 sequence (looked up): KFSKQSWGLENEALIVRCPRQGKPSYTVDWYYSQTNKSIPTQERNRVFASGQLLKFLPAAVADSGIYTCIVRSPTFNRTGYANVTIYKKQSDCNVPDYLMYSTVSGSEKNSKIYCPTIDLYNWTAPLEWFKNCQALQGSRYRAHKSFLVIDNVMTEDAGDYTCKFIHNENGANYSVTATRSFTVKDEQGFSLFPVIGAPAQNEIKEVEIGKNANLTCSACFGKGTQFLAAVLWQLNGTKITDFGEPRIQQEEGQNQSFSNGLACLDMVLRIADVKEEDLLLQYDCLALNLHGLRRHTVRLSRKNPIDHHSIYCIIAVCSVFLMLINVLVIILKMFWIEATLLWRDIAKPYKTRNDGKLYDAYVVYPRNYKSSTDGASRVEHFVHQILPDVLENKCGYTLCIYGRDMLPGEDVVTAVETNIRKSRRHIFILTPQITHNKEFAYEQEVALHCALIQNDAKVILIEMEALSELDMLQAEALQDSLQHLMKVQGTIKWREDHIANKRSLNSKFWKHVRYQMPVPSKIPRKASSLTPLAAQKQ

B1: IL1RL1-193 (antibody, V domains shown)
VH: EVQLLESGGGLVQPGGSLRLSCAASGFTFAKYKMWWVRQAPGKGLEWVSGITRSGSTNYRDSVKGRFTISRDNSKNTLYLQMNSLRAEDTAVYYCASLSRGYWGQGTLVTVSS
VL: DIQMTQSPSSLSASVGDRVTITCKASDHIGKFLTWYQQKPGKAPKLLIYHTSRLQSGVPSRFSGSGSGTDFTLTISSLQPEDFATYYCQQGFSNPWTFGQGTKVEIK
notes: IgG2
B2: IL1RL1-214 (antibody, V domains shown)
VH: EVQLLESGGGLVQPGGSLRLSCAASGFTFNAYPMTWVRQAPGKGLEWVSAISGRGDNTYYADSVKGRFTISRDNSKNTLYLQMNSLRAEDTAVYYCARPPKRGPRFDYWGQGTLVTVSS
VL: DIQMTQSPSSLSASVGDRVTITCKASENVDTYVSWYQQKPGKAPKLLIYGRNKRPSGVPSRFSGSGSGTDFTLTISSLQPEDFATYYCQQGHTLPWTFGQGTKVEIK
notes: IgG2
B3: IL1RL1-32 (Fc fusion, not shown: a dimerising Fc or GST)
VHH: EVQLVESGGGLVQPGGSLRLSCAASGFTLGDYVMGWFRQAPGKEREFVAVIYTSDGSTYYADSVKGRFTISADNSKNTAYLQMNSLKPEDTAVYYCVVSFSTRGPYWGQGTLVTVSS
notes: VHH-Fc on IgG2 Fc
B4: IL1RL1-189 (antibody, V domains shown)
VH: EVQLLESGGGLVQPGGSLRLSCAASGFTFSSYFMSWVRQAPGKGLEWVSAISREGRATYYADSVKGRFTISRDNSKNTLYLQMNSLRAEDTAVYYCARIRVGPSGGAFDYWGQGTLVTVSS
VL: DIQMTQSPSSLSASVGDRVTITCKASDHIGKFLTWYQQKPGKAPKLLIYGRNKRPSGVPSRFSGSGSGTDFTLTISSLQPEDFATYYCQQSYSTPTFGQGTKVEIK
notes: IgG2
B5: IL1RL1-252 (antibody, V domains shown)
VH: EVQLLESGGGLVQPGGSLRLSCAASGFTFSRYHIEWVRQAPGKGLEWVSAISGRGDNTYYADSVKGRFTISRDNSKNTLYLQMNSLRAEDTAVYYCARHKGLQPLDYWGQGTLVTVSS
VL: DIQMTQSPSSLSASVGDRVTITCRASQDVSSGVAWYQQKPGKAPKLLIYPKHNRPPGVPSRFSGSGSGTDFTLTISSLQPEDFATYYCSARSVRGNPHVLFGQGTKVEIK
notes: IgG2
B6: IL1RL1-230 (antibody, V domains shown)
VH: EVQLLESGGGLVQPGGSLRLSCAASGFTFSGYIMAWVRQAPGKGLEWVSSISSTGFKTYYADSVKGRFTISRDNSKNTLYLQMNSLRAEDTAVYYCAKGNSRYVFDYWGQGTLVTVSS
VL: DIQMTQSPSSLSASVGDRVTITCKASDHIGKFLTWYQQKPGKAPKLLIYGRNKRPSGVPSRFSGSGSGTDFTLTISSLQPEDFATYYCNSRDTSGLHYVFGQGTKVEIK
notes: IgG2
B7: IL1RL1-79 (Fc fusion, not shown: a dimerising Fc or GST)
VHH: EVQLVESGGGLVQPGGSLRLSCAASGRTFSMGWFRQAPGKEREAVASISWSGGSAFYADSVKGRFTISADNSKNTAYLQMNSLKPEDTAVYYCAAIGGGAVWGQGTLVTVSS
notes: VHH-Fc on IgG2 Fc
B8: IL1RL1-76 (Fc fusion, not shown: a dimerising Fc or GST)
VHH: EVQLVESGGGLVQPGGSLRLSCAASGSIFTIYAMGWFRQAPGKEREWVASISTSGSTITPYADSVKGRFTISADNSKNTAYLQMNSLKPEDTAVYYCATTEYSGYDAVNYWGQGTLVTVSS
notes: VHH-Fc on IgG2 Fc
B9: IL1RL1-200 (antibody, V domains shown)
VH: EVQLLESGGGLVQPGGSLRLSCAASGFTFKSYGMHWVRQAPGKGLEWVSLIPHTGNPTYYADSVKGRFTISRDNSKNTLYLQMNSLRAEDTAVYYCARGGPRGNKYYFDYWGQGTLVTVSS
VL: DIQMTQSPSSLSASVGDRVTITCSGDKLGHTYTSWYQQKPGKAPKLLIYRKSNRPSGVPSRFSGSGSGTDFTLTISSLQPEDFATYYCYSRDRSGNHLGMFGQGTKVEIK
notes: IgG2
B10: IL1RL1-221 (antibody, V domains shown)
VH: EVQLLESGGGLVQPGGSLRLSCAASGFTFPKYDMMWVRQAPGKGLEWVSSIRGSSSSTYYADSVKGRFTISRDNSKNTLYLQMNSLRAEDTAVYYCARAGRILFDYWGQGTLVTVSS
VL: DIQMTQSPSSLSASVGDRVTITCRASQTIERRLNWYQQKPGKAPKLLIYGRNKRPSGVPSRFSGSGSGTDFTLTISSLQPEDFATYYCGQSYRYPLTFGQGTKVEIK
notes: IgG2
B11: IL1RL1-269 (antibody, V domains shown)
VH: EVQLLESGGGLVQPGGSLRLSCAASGFTFDRYRMMWVRQAPGKGLEWVSAITGSGGSTYYADSVKGRFTISRDNSKNTLYLQMNSLRAEDTAVYYCAKGLRRFDYWGQGTLVTVSS
VL: DIQMTQSPSSLSASVGDRVTITCRASQSVDRYFNWYQQKPGKAPKLLIYGKNIRPSGVPSRFSGSGSGTDFTLTISSLQPEDFATYYCGQSYRYPLTFGQGTKVEIK
notes: IgG2
B12: IL1RL1-270 (antibody, V domains shown)
VH: EVQLLESGGGLVQPGGSLRLSCAASGFTFSRYFMGWVRQAPGKGLEWVSGITRSGSTNYRDSVKGRFTISRDNSKNTLYLQMNSLRAEDTAVYYCAKGPGTRGDYWGQGTLVTVSS
VL: DIQMTQSPSSLSASVGDRVTITCRASQPIGPDLLWYQQKPGKAPKLLIYGASRLQRGVPSRFSGSGSGTDFTLTISSLQPEDFATYYCASRNGWNHVVFGQGTKVEIK
notes: IgG2
B13: IL1RL1-33 (Fc fusion, not shown: a dimerising Fc or GST)
VHH: EVQLVESGGGLVQPGGSLRLSCAASGGTFSTHWMGWFRQAPGKEREEVAAISWIIGSTYYADSVKGRFTISADNSKNTAYLQMNSLKPEDTAVYYCATSGSGSPNWGQGTLVTVSS
B14: IL1RL1-192 (antibody, V domains shown)
VH: EVQLLESGGGLVQPGGSLRLSCAASGFTFGNYAMAWVRQAPGKGLEWVSGITRSGSTNYRDSVKGRFTISRDNSKNTLYLQMNSLRAEDTAVYYCARDRYFRQQNAFDYWGQGTLVTVSS
VL: DIQMTQSPSSLSASVGDRVTITCQASQSISSYLAWYQQKPGKAPKLLIYGRNKRPSGVPSRFSGSGSGTDFTLTISSLQPEDFATYYCAQTGTHPTTFGQGTKVEIK
notes: IgG2
B15: IL1RL1-36 (Fc fusion, not shown: a dimerising Fc or GST)
VHH: EVQLVESGGGLVQPGGSLRLSCAASGSIYSLVAMGWFRQAPGKEREWMGVIAYDGSTYYADSVKGRFTISADNSKNTAYLQMNSLKPEDTAVYYCAAVGGATTVTASEWDWGQGTLVTVSS
notes: VHH-Fc on IgG2 Fc
B16: IL1RL1-256 (antibody, V domains shown)
VH: EVQLLESGGGLVQPGGSLRLSCAASGFTFDRYRMTWVRQAPGKGLEWVSSIGANGAPTYYADSVKGRFTISRDNSKNTLYLQMNSLRAEDTAVYYCARGRLFDYWGQGTLVTVSS
VL: DIQMTQSPSSLSASVGDRVTITCQGASLRNYYASWYQQKPGKAPKLLIYGNNNRPSGVPSRFSGSGSGTDFTLTISSLQPEDFATYYCASRSSKGNPHVLFGQGTKVEIK
notes: IgG2
B17: IL1RL1-257 (antibody, V domains shown)
VH: EVQLLESGGGLVQPGGSLRLSCAASGFTFSPRRMSWVRQAPGKGLEWVSAITGSGGSTYYADSVKGRFTISRDNSKNTLYLQMNSLRAEDTAVYYCARGRLFDYWGQGTLVTVSS
VL: DIQMTQSPSSLSASVGDRVTITCRASQSISGYLNWYQQKPGKAPKLLIYGNNNRPSGVPSRFSGSGSGTDFTLTISSLQPEDFATYYCSQNTHVPYTFGQGTKVEIK
notes: IgG2
B18: IL1RL1-239 (antibody, V domains shown)
VH: EVQLLESGGGLVQPGGSLRLSCAASGFTFRRYVMGWVRQAPGKGLEWVSSISGSSGTTYYADSVKGRFTISRDNSKNTLYLQMNSLRAEDTAVYYCAKAYYGGFDYWGQGTLVTVSS
VL: DIQMTQSPSSLSASVGDRVTITCSASSSVSSSYLHWYQQKPGKAPKLLIYRKSNRPSGVPSRFSGSGSGTDFTLTISSLQPEDFATYYCQQSYSTPTFGQGTKVEIK
notes: IgG2
B19: IL1RL1-262 (antibody, V domains shown)
VH: EVQLLESGGGLVQPGGSLRLSCAASGFTFSRYAMNWVRQAPGKGLEWVSAISGSGGNTYYADSVKGRFTISRDNSKNTLYLQMNSLRAEDTAVYYCARVWRNSLDYWGQGTLVTVSS
VL: DIQMTQSPSSLSASVGDRVTITCSGDRLGEKYVSWYQQKPGKAPKLLIYENNNRPSGVPSRFSGSGSGTDFTLTISSLQPEDFATYYCVARAVRGNPHVLFGQGTKVEIK
notes: IgG2
B20: IL1RL1-245 (antibody, V domains shown)
VH: EVQLLESGGGLVQPGGSLRLSCAASGFTLSSYAMSWVRQAPGKGLEWVSGITRSGSTNYRDSVKGRFTISRDNSKNTLYLQMNSLRAEDTAVYYCAKFPFTHGKFDYWGQGTLVTVSS
VL: DIQMTQSPSSLSASVGDRVTITCRASQGVRTSLAWYQQKPGKAPKLLIYRASTLASGVPSRFSGSGSGTDFTLTISSLQPEDFATYYCASRSSKGNPHVLFGQGTKVEIK
notes: IgG2

target: T1, IL1RL1 over-expressed on Expi293 cells; assay: flow cytometry, 100 nM antibody, over-expressing Expi293 / parent cells
Protocol: All incubations and washes were in buffer containing PBS+1% BSA. MFI Ratio is defined by the mean fluorescence intensity (MFI) of the cytokine over-expressing Expi293 cell over the Expi293 parent cell. […] EC50 was calculated in GraphPad Prism.

Compared with B1, B2 is lower in “100 nM FACS (MFI Ratio)” value: 1.62 MFI ratio for the first, 1.34 MFI ratio for the second.

First: B3
Second: B4
The “100 nM FACS (MFI Ratio)” value of the first is higher: 432 MFI ratio for the first, 7.46 MFI ratio for the second.

Compared with B5, B6 is higher in “100 nM FACS (MFI Ratio)” value: 0.58 MFI ratio for the first, 1.43 MFI ratio for the second.

Compared with B7, B8 is higher in “100 nM FACS (MFI Ratio)” value: 1 MFI ratio for the first, 385 MFI ratio for the second.

Going from B9 to B10, the “100 nM FACS (MFI Ratio)” value falls from 1 MFI ratio to 0.51 MFI ratio.

First: B11
Second: B12
The “100 nM FACS (MFI Ratio)” value of the first is higher: 0.85 MFI ratio for the first, 0.31 MFI ratio for the second.

First: B13
Second: B14
The “100 nM FACS (MFI Ratio)” value of the first is higher: 504 MFI ratio for the first, 0.55 MFI ratio for the second.

First: B15
Second: B16
The “100 nM FACS (MFI Ratio)” value of the first is higher: 87.7 MFI ratio for the first, 0.6 MFI ratio for the second.

Going from B17 to B18, the “100 nM FACS (MFI Ratio)” value rises from 1.38 MFI ratio to 1.93 MFI ratio.

First: B19
Second: B20
The “100 nM FACS (MFI Ratio)” value of the first is higher: 6.04 MFI ratio for the first, 1.28 MFI ratio for the second.
